Columns and labels:
[1] = target: T1, cynoTNC (recombinant cynomolgus TnC antigen) (cynomolgus, biotin on the C-terminal avi-tag where used biotinylated (Example 5)); experiment: SPR Biacore T200, biotinylated TnC on SA chip, IgG as analyte, 1:1 fit (apparent, bivalent)
T1 construct: GST may have been cleaved off by thrombin; The text says this construct lacks the C domain
T1 chain: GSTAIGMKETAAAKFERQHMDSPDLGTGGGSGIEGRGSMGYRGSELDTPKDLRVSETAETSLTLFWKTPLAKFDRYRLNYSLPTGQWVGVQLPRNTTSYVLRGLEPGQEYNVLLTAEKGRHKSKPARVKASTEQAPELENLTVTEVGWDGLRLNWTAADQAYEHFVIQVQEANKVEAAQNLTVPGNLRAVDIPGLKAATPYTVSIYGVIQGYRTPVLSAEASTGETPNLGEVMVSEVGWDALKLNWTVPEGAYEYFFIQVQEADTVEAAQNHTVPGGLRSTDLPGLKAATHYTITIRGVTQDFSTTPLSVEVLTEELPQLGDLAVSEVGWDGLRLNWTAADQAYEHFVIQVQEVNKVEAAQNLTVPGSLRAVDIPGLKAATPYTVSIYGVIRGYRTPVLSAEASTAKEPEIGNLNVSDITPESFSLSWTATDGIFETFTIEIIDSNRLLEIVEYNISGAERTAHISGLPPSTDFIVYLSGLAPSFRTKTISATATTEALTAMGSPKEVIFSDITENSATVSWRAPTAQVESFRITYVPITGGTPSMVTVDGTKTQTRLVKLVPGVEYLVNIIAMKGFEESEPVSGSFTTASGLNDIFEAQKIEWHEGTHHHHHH
Method: (§1) Binding of the anti-TnC IgGs 18D4, 11C7 and the Fab fragment of anti-TnC 18D4 to human, murine and cynomolgus TnC (antigens according to Table 4) was assessed by surface plasmon resonance (SPR). All SPR experiments were performed on a Biacore T200 at 25° C. with HBS-EP as running buffer (0.01 M HEPES pH 7.4, 0.15 M NaCl, 3 mM EDTA, 0.005% Surfactant P20, Biacore, Freiburg/Germany).
(§2) A 20 μg/ml stock solution of biotinylated human, murine or cynomolgus TnC was injected on a SA chip, with the aim to immobilize up to 100 RU using the immobilization wizard function.
(§3) An additional dissociation step of 1800s was performed for the highest concentration of IgG. After each step the surface was regenerated following two sequential injections of 10 mM glycine pH2.1 for 60 s. Bulk refractive index differences were corrected for by subtracting the response obtained in a reference flow cell without TNC. Affinity and avidity were calculated using the Langmuir 1:1 kinetic model. However, as the KD for the 1:1 fitting of bivalent interactions is an apparent value only, it should only be used for comparisons.

[2] = target: T2, muTNC (recombinant murine TnC antigen) (mouse, biotin on the C-terminal avi-tag where used biotinylated (Example 5)); experiment: as above
T2 construct: GST may have been cleaved off by thrombin; The text says this construct lacks the C domain; also called mouse TnC
T2 chain: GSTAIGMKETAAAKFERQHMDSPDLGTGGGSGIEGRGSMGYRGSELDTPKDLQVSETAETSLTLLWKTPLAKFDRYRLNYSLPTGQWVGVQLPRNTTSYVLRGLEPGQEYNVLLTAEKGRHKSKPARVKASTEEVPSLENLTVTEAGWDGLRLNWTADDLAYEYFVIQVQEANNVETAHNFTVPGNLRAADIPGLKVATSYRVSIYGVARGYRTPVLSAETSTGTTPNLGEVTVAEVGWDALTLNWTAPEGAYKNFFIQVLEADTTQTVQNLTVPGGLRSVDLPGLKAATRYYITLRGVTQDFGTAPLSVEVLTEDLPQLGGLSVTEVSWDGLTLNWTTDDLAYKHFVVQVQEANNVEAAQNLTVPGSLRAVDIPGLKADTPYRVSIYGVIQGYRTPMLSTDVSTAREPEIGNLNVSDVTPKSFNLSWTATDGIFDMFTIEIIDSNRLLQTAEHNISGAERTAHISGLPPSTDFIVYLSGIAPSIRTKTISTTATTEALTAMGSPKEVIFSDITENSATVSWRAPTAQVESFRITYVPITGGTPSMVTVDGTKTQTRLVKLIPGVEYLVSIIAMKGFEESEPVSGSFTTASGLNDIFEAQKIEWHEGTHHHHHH
Method: as §1, §2, §3

[3] = target: T3, huTNC (recombinant human TnC antigen) (human, UniProt P24821 984-1798, biotin on the C-terminal avi-tag where used biotinylated (Examples 5 and 10)); experiment: as above
T3 sequence: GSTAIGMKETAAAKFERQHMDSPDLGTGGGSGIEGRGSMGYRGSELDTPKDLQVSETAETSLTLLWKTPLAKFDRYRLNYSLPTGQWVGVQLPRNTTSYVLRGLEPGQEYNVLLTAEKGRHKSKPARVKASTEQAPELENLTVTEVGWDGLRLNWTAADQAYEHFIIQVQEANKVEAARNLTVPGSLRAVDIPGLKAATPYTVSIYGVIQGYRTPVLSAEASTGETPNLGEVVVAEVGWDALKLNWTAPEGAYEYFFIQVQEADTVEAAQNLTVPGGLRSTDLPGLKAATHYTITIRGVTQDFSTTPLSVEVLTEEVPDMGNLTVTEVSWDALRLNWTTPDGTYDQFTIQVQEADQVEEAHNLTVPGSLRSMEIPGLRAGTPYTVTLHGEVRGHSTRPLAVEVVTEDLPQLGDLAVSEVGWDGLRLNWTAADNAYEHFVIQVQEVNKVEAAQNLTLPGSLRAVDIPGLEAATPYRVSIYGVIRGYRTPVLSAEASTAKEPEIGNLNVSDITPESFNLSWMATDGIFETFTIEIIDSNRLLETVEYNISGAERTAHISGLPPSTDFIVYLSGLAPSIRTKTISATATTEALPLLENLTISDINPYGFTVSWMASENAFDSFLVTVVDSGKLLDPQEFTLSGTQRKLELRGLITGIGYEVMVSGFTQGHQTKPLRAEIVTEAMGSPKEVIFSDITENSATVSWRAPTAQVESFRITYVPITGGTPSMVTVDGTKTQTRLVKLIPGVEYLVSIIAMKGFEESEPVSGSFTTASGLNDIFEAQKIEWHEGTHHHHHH
Method: as §1, §2, §3

[4] = target: T4, human TnC on TnC-expressing U87-MG glioblastoma cells (human, UniProt P24821 23-2201); experiment: flow cytometry on TnC-expressing U87-MG cells
T4 construct: whole, on cells; also called human-TnC expressing U87-MG
T4 sequence (P24821 23-2201): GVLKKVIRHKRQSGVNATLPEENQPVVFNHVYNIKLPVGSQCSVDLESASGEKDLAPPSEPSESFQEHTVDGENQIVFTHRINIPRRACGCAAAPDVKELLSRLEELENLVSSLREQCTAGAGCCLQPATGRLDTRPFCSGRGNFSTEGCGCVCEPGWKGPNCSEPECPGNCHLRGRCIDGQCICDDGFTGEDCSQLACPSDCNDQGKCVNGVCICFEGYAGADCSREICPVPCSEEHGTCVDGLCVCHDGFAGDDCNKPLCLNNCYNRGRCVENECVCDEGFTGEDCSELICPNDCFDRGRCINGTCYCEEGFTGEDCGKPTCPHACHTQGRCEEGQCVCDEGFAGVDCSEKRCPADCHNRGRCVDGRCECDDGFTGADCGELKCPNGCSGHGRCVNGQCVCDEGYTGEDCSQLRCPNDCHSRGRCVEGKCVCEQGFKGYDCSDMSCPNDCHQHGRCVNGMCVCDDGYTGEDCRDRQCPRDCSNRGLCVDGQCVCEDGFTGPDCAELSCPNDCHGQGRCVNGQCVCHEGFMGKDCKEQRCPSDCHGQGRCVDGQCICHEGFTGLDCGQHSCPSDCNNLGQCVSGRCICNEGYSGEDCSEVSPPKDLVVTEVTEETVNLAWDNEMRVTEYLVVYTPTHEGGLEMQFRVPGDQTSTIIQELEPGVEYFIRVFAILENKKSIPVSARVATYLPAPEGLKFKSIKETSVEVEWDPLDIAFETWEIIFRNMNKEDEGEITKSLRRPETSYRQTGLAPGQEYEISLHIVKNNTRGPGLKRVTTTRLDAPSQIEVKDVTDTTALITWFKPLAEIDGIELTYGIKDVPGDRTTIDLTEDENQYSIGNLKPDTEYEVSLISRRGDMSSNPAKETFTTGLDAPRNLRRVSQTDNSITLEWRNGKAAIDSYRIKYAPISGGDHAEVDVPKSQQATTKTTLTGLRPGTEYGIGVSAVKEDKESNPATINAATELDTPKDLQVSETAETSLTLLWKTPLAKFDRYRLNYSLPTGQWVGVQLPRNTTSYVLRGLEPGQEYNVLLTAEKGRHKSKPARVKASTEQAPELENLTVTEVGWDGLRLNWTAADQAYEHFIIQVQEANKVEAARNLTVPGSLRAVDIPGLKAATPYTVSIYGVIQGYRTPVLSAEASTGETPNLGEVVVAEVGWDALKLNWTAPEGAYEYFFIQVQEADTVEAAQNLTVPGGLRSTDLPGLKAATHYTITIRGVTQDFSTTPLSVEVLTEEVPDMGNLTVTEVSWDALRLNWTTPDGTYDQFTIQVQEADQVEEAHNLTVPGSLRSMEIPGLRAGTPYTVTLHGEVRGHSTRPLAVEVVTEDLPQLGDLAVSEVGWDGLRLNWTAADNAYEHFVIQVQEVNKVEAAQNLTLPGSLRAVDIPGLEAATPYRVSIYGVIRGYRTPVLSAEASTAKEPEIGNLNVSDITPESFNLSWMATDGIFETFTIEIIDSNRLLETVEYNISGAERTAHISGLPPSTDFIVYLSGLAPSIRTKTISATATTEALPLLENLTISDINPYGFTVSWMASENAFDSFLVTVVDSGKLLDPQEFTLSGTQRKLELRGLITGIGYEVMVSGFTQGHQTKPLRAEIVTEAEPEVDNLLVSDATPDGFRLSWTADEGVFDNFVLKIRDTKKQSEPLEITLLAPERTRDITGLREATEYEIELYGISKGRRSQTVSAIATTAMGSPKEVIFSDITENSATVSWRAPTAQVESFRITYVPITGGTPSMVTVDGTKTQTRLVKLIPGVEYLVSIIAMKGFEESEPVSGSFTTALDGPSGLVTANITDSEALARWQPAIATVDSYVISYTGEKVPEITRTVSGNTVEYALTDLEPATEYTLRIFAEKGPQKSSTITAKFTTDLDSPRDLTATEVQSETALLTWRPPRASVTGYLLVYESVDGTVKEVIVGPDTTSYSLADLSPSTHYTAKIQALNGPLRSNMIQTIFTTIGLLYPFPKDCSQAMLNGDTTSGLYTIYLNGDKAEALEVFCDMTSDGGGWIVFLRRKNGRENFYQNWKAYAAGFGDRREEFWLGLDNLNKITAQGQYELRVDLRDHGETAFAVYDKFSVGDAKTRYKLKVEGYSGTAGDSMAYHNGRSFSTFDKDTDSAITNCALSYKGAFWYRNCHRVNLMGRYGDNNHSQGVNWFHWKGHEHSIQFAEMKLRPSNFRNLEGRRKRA

[5] = target: T5, GST huTNC fn5 A1234 BC fn6 B (human, UniProt P24821 984-1798, biotin on the C-terminal avi-tag (BirA, site-specific)); experiment: SPR ProteOn XPR36, biotinylated antigen on NLC chip, Fab as analyte, 25 C
T5 construct: also called Human GST-fused TnC fn5 A1234 BC fn6
T5 sequence: T3 sequence
Method: (§4) Immobilization of antigens (ligand): Recombinant antigens were diluted with PBST (10 mM phosphate, 150 mM sodium chloride pH 7.4, 0.005% Tween 20) to 10 μg/ml, then injected at 30 μl/minute in vertical orientation. Injection of analytes: For ‘one-shot kinetics’ measurements, injection direction was changed to horizontal orientation, two-fold dilution series of purified Fab were injected simultaneously along separate channels 1-5, with association times of 200 s, and dissociation times of 240 s, respectively. Buffer (PBST) was injected along the sixth channel to provide an “in-line” blank for referencing. Association rate constants (kₒₙ) and dissociation rate constants (koff) were calculated using a simple one-to-one Langmuir binding model in ProteOn Manager v3.1 software by simultaneously fitting the association and dissociation sensorgrams. The equilibrium dissociation constant (KD) was calculated as the ratio koff/kₒₙ.

[6] = target: T6, GST TNC hu fn5 B-C fn6 B (human, biotin on the C-terminal avi-tag (BirA, site-specific)); experiment: as above
T6 chain: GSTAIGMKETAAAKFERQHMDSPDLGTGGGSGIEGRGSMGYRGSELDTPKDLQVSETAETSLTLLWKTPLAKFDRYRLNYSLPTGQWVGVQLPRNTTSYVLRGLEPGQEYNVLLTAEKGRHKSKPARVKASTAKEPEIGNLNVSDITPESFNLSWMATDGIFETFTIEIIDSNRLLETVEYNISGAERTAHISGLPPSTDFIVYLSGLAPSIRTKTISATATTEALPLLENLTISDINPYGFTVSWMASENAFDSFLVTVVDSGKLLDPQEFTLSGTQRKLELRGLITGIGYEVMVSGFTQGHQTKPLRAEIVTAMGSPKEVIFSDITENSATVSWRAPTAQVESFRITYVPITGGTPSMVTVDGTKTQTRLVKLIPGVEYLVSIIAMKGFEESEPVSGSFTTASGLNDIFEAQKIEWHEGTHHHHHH
Method: as §4

B1: anti-TnC 18D4 wild type human IgG1 (antibody)
heavy: not shown
light: DIQMTQSPSTLSASVGDRVTITCRASQSISSWLAWYQQKPGKAPKLLIYDASSLESGVPSRFSGSGSGTEFTLTISSLQPDDFATYYCQQNKKFPSGTFGQGTKVEIKRTVAAPSVFIFPPSDEQLKSGTASVVCLLNNFYPREAKVQWKVDNALQSGNSQESVTEQDSKDSTYSLSSTLTLSKADYEKHKVYACEVTHQGLSSPVTKSFNRGEC
notes: also called 18D4 IgG wt Fc; a-TnC(18D4) huIgG1
Q: Which results are given for B1?
A: Kd [1]: 0.036 nM; Kd [2]: 0.061 nM; Kd [3]: 0.093 nM

B2: anti-TnC(18D4) huIgG1 P329G LALA (antibody)
heavy: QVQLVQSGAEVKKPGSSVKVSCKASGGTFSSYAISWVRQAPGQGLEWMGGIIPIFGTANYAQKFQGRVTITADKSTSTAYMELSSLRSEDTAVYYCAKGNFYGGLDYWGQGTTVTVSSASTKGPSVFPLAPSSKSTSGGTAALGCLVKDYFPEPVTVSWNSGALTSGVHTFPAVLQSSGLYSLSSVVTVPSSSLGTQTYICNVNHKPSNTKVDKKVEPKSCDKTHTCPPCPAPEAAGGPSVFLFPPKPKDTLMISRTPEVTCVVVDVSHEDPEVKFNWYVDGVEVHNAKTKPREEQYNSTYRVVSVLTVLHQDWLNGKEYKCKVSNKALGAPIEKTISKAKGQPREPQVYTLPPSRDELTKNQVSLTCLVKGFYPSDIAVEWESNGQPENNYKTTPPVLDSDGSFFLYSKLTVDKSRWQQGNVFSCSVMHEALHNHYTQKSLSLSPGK
light: B1 light
notes: also called 18D4 IgG PG/LALA; 18D4 IgG PGLALA
Q: Which results are given for B2?
A: EC50 [4]: 4.24 nM; Kd [1]: 0.011 nM; Kd [2]: 0.03 nM; Kd [3]: 0.032 nM

B3: anti-TnC clone 11C7 rabbit IgG (antibody, V domains shown)
VH: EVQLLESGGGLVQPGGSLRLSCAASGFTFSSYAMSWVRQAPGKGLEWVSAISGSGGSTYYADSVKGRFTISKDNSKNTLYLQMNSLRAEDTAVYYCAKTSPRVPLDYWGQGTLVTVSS
VL: SSELTQDPAVSVALGQTVRVTCQGDSLRSYYASWYQQKPGQAPVLVIYGKNNRPSGIPDRFSGSSSGNTASLTITGAQAEDEADYYCNSINSTRNEVFGGGTKLTVL
notes: also called llC7 rb IgG; 11C7 (rb IgG)
Q: With B3 as the binder, how does the Kd [3] read?
A: 0.029 nM

B4: anti-TnC clone 11C7 Fab (Fab, V domains shown)
VH: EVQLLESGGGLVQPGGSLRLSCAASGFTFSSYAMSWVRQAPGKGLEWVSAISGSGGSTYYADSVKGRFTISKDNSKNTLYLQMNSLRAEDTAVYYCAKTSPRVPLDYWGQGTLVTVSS
VL: B3 VL
notes: Bacterially expressed purified Fab from the lambda-DP47 phage library format (lambda CL, CH1, tags)
Q: B4 was tested. Which Kd [5] did it give?
A: 2.3 nM

Q: And the Kd [6]?
A: 1 nM

Reference: patent US20190248877A1 (Hoffmann-La Roche, published 2019)
